Data as given in FireProtDB (doi:10.1016/0022-2836(81)90253-9).

Settings: Sus scrofa, Thermal, DSC, reversible: yes, whole UniProt chain shown
[1] = pH 6.5, sodium phosphate 5 mM, NaCl 100 mM
[2] = pH 7.1, sodium phosphate 5 mM, NaCl 100 mM

B1: Gastricsin wild type, P30879 (protein)
chain: SVIKVPLKKLKSIRQAMKEKGLLEEFLKTHKYDPAQRYRIGDISVALEPMAYLEAAYFGEISIGTPPQNFLVL
- Tm (pH 6, sodium cacodylate 5 mM): 66 °C
- unfolding enthalpy (calorimetric) (pH 6, sodium cacodylate 5 mM): 271 kcal/mol
- unfolding enthalpy (van 't Hoff) (pH 6, sodium cacodylate 5 mM): 174 kcal/mol
- Tm [1]: 64.5 °C
- unfolding enthalpy (calorimetric) [1]: 256 kcal/mol
- unfolding enthalpy (van 't Hoff) [1]: 131 kcal/mol
- Tm (pH 6.5, sodium phosphate 5 mM): 61 °C
- unfolding enthalpy (calorimetric) (pH 6.5, sodium phosphate 5 mM): 240 kcal/mol
- unfolding enthalpy (van 't Hoff) (pH 6.5, sodium phosphate 5 mM): 125 kcal/mol
- Tm [2]: 56.3 °C
- unfolding enthalpy (calorimetric) [2]: 202 kcal/mol
- unfolding enthalpy (van 't Hoff) [2]: 143 kcal/mol
